The values that follow come from PMC9305820.

Assay [1] has as its target Fluorescently labeled TGF-β1. Nature of the assay: MST.
The target of assay [2] is Transforming growth factor-β1 (TGF-β1) dimer (UniProt P01137). The assay can be described thus: dynamic light scattering.
Assay [3] has the same target. The assay can be described thus: negative-stain electron microscopy.

Sequence of UniProt P01137 (P01137 279-390): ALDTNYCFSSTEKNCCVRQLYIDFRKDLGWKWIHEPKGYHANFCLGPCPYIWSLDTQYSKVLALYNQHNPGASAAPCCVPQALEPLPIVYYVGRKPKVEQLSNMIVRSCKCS

In assay [1], “Bintrafusp alfa (from UniProt P37173 23-166)” came in with a Kd of 0.055 nM. Moreover, in assay [2], the stoichiometry N (BA per TGF-β1 dimer) came out at 1. Also, the stoichiometry N (TGF-β1 dimer per BA) in assay [3] came out at 1.
